The text below walks through data of US20100297149A1 (ATYR PHARMA, published 2010).

This assay addresses T1, human CCR1-EGFP expressed on HEK293T cells (human, UniProt P32246 1-355).
T1 construct: whole, on cells; Transiently transfected HEK293T cells; the fusion localized to the cell membrane; also called CCR1-expressing cells; not shown: EGFP from the pEGFP-N1 vector
T1 sequence (looked up): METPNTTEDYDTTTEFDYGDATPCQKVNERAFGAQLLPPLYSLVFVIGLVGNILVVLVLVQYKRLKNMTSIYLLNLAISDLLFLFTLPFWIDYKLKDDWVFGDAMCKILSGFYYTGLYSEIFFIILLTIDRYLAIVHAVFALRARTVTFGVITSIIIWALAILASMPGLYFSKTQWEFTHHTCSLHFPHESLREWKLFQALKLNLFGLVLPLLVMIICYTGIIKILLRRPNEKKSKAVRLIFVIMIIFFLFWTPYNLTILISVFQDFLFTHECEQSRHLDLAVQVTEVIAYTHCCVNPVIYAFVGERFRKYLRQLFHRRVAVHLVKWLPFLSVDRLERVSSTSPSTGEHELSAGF
The experiment in a line: flow cytometry (FACS) on CCR1-EGFP-transfected HEK293T cells, detection with FITC anti-tag antibody. Here is the method: Human CCR5 was amplified and cloned into to pEGFP-N1 vector. Human CCR1 receptor, also a CC chemokine receptor, was included as a control. HEK293T cells were transfected with CCR5-EGFP or CCR1-EGFP plasmids and 1d after transfection, cells were washed with PBS and detached from culture dish by trypsin. 1×10″6 cells were put into FACS tube in 100 μl complete media and kept on ice (cells were kept cold for remainder of the assay). Cells were treated with recombinant HRS-SV11 protein for 45′. Then cells were washed once with 1 ml staining buffer (1×PBS+3% FBS) and spin down at 4° C., 400×g for 10′. After wash, cells were incubated with 0.3 μl primary anti-V5-FITC antibody (3 μg/ml) in 100 μl staining buffer for 30′ in dark (kept in dark for remainder of the assay). Cells were then washed twice with 1 ml staining buffer, 4° C., 400×g for 10′ and spun down. After the final wash, cell pellets were resuspended in 800 μl staining buffer and analyzed immediately by FACS.
On the technique in general: In flow cytometry, cells or beads pass a laser one at a time.

B1: recombinant HRS-SV11 splice variant polypeptide of human histidyl-tRNA synthetase with C-terminal polyhistidine tag (6xHis) (ligand)
chain: MAERAALEELVKLQGERVRGLKQQKASAELIEEEVAKLLKLKAQLGPDESKQKFVLKTPKALEEKIRTTETQVLVASAQKKLLEERLKLVSELWDAGIKAELLYKKNPKLLNQLQYCEEAGIPLVAIIGEQELKDGVIKLRSVTSREEVDVRREDLVEEIKRRTGQPLCICHHHHHH
notes: Expressed in E. coli from pET20b (EcoRV/NotI, no stop codon) and purified on Ni-NTA; By gel filtration it switches between monomer and dimer; also called wild type HRS-SV11
For the molecule B1, the binding result was “no binding”.
